Reference: EP4417623A1 (Fundació Institut de Recerca Contra la Leucèmia Josep …, dated 2024)
Where no end group is shown, it is not given here.

Legend:
Peptide 3: SSMEDYVNFN-C = target: T1, Peptide 3: SSMEDYVNFN-C (not fully specified; printed as SSMEDYVNFN-C); assay: peptide ELISA titration, OD450
T1 peptide: SSMEDYVNFNC

Peptide 4: SMEDYVNFNF-C = target: T2, Peptide 4: SMEDYVNFNF-C (not fully specified; printed as SMEDYVNFNF-C); assay: peptide ELISA titration, OD450
T2 peptide: SMEDYVNFNFC

[1] = target: T3, CCR9 peptide #1 MADDYGSESTSSMEDYVNFNF-C (human, extra C-terminal Cys for BSA conjugation (coated as non-conjugated or BSA-conjugated peptide)); assay: ELISA screening against the immunisation peptide
T3 construct: This is the immunisation peptide; It was conjugated to BSA for the ELISA screenings; also called MADDY peptide; complete antigen peptide
T3 peptide: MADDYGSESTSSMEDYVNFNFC

binding result (Peptide 3: SSMEDYVNFN-C): binds | binding result (Peptide 4: SMEDYVNFNF-C): binds | binding result [1]: binds
B1: anti-CCR9 antibody clone 115 (antibody, V domains shown)
VH: QVQLKQSGPELVKPGTSVRVSCTASGYSFTDYIIYWVKQSHGRSLEWIGYIDPNNYNTRYSQKFKGKATLTVDKSSTSAFMHLNSLTSDDSAVYYCARDVYWGQGTTLTVSS
VL: DVVMTQTPLSLTVSLGDQASISCRSSQSLVHSNGKTYLQWYLQKPGQSPKLLIYKVSNRFSGVPDRFSGSGSGTDFTLKISRVEAEDLGVYFCAQSTHVWTFGGGTKLEIKR
notes: Murine monoclonal antibody, isotype IgG1; It was tested as hybridoma supernatant in the FACS screening and as Protein A/G purified antibody in the ELISA
